Where two headings read alike, the source gives them in different places. One block for each substance: values may come before it.
Assays:
[1] = cited from earlier work; for half-life in human serum: following subcutaneous administration
[2] = Predicted human plasma concentration profiles of GLP-1 agonists dosed by periodic injection, model fitted to published human pharmacokinetic data; details: for peak-trough / peak relative to mean: periodic injection dosed according to prescribers' information; for d[drug]/dt: periodic injection, percent of steady state mean concentration per hour
Excerpt: Two compartments (SC and Central) are contemplated. A constant fraction of SC drug enters the Central compartment per unit time (defined by Ka). A constant fraction of Central drug is eliminated per unit time (defined by K). Central drug concentration (equal to plasma drug concentration) is an amount of drug in the Central compartment (A) diluted into its volume of distribution (Vd).
Plasma concentrations are each expressed as a fraction of […] plasma concentration i.e., steady state concentration (Css). The predictions are based upon published human pharmacokinetic data, with either raw plasma concentration data or data digitized from published figures for a single subcutaneous dose. The plasma concentrations were fitted to a model describing “absorption+single component decay” for each agent, as depicted in FIG. 13, based upon a rate constant for absorption from a subcutaneous depot into the plasma, and another rate constant for elimination from the plasma compartment. Data were fit using non-linear regression via an iterative least-squares method within Prism v7.0 (GraphPad Software Inc., San Diego, Calif.).
The derived plasma concentration profile for a single subcutaneous bolus was extended from the time of dosing until plasma concentrations were negligible. This profile was serially added to itself, staggered by a period determined by the indicated dose interval, and in a magnitude determined by the recommended dose increases. The numeric sum is shown as the black line in each plot.
(§1) Rate of change of drug concentration, particularly positive rate of change, d[drug]/dt, was derived as the first differential of the plasma concentration profile summed as described above. The d[drug]/dt was expressed with “d[drug]” units reduced to percent of steady state mean concentration of indicated doses, to enable comparisons between agents with differing potencies and pharmacokinetics. The “dt” units were hours. The X-axes in FIGS. 10 and 12 represent the d[drug]/dt thus obtained, in units of “% of steady-state mean (i.e., Css) per hour”.

[3] = patients, cited from earlier work
human GLP-1 receptors = biological target: T1, human GLP-1 receptors (Homo sapiens, UniProt P43220); experiment: Albumin binding assessed by potency shift: cAMP activation of GLP-1 receptors expressed in CHO-K1 cells at different HSA concentrations; format: cell-based; details: potency decreased with increasing albumin concentration; final HSA 0-4%
T1 construct: expressed in transfected cells; host or cells: CHO-K1 (transient transfection, Lipofectamine 2000)
Excerpt: EC50 values were converted to pEC50 values using the formula: pEC50=−Log(EC50).

[4] = Estimated d[drug]/dt if administered via single subdermal placement of an osmotic drug delivery device; set-up: species or system human
Excerpt: as §1

[5] = periodic injection of aqueous solution
[6] = periodic injection (weekly aqueous solution)

T1 sequence (P43220 24-463): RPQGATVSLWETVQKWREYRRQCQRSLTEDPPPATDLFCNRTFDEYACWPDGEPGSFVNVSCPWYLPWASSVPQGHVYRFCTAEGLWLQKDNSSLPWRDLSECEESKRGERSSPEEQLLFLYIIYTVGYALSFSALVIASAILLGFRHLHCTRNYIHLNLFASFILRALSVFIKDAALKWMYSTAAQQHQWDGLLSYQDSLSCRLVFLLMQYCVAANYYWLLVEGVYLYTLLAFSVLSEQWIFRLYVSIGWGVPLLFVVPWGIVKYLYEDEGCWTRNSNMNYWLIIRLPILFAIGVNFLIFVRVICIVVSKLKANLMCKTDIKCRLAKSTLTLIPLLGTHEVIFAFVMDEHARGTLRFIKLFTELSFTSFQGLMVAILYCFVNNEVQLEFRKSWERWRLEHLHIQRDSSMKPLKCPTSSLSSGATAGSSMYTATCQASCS

Substance: GLP-1
t1/2 ([1]; peptidase prone GLP-1, by contrast to exenatide): ~3.4 min

Substance: albiglutide
half-life ([1]; in humans): 140 to 190 h
peak-trough [2]: 28 % of peak

Substance: des-Pro^36-exendin-4(1-39)-Lys6-NH2 [lixisenatide]
nausea ([3]; daily injection, in 24 weeks): 26%
vomiting ([3]; daily injection, in 24 weeks): 11%
half-life in human serum [1]: approximately several hours
terminal half-life ([1]; humans, subcutaneous administration): approximately 3 h
peak relative to mean [2]: 2.4 × mean
peak-trough [2]: 97 % of peak
Tmax [2, 5]: ~1.7 h
t1/2 [2, 5]: ~3.0 h
d[drug]/dt [2]: 204 % mean/hour

Substance: dulaglutide
peak-trough [2]: 63 % of peak

albumin (HSA) concentration at mid-range of the potency change (human GLP-1 receptors): ~0.6%
Substance: semaglutide
nausea reported ([3]; weekly injection): 22%
withdrawn ([3]; weekly injection): 6%
d[drug]/dt, times lower than d[exenatide]/dt [4]: 35 ×
half-life in human serum [1]: ~165 h
Tmax [2, 6]: ~76.8 h
t1/2 [2, 6]: ~199 h
peak relative to mean [2]: 1.12 × mean
peak-trough [2]: 26 % of peak
d[drug]/dt [2]: 3.3 % mean/hour
